Reference: the nanobody polyreactivity screen of Harvey et al. (2022)

Test: yeast display, Sf9 membrane polyspecificity reagent, FACS + sequencing; frameworks hold sequencing errors
How it was run: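 Synthetic nanobody libraries on Saccharomyces cerevisiae BJ5465 were galactose-induced for 36–48 hours, stained 1 hour at 4 °C with 10% biotinylated, detergent-solubilized Sf9 membrane reagent and enriched on streptavidin microbeads. FACS then separated cells into low and high (top ~1%) gates by anti-HA (expression) and streptavidin (reagent binding) fluorescence. Genes were colony-PCR amplified, MiSeq 2 × 250 sequenced and CDR-length filtered. A clone's polyreactivity label is that of its gate of origin.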

Sequence | polyreactivity (PSR sort gate)
QVQLVESGGGLVQAGGSLLLSCAASGSIFPYYAMGMYRQAPGKERELVAAITDGGSTNYADSVKGRFTISRDNAKNTFYLQMNSLKQEDTAVYYCNKLPGYYDYDYWGQGTQVTVSS | low polyreactivity
QVQLVESGGGLVQAGGSLRLSCDASGSTFRANAMGWYRQAPGKECELVAAISQSGGITYYADSVKGRFTISRDNAKNTVYLQMNCLKPEDTAVYYCAAKGSYSYDVGGPVYQRTYGYWGQGTQVTVSS | high polyreactivity
QVQLVESGGGIVQAGGSLRLSCAASGYTFPRYAMGWYRQAPGKERELVAAITSRGGSTYYADSVKGRFTISRDNAKNTVYLQMNSLKPEDTAVYYCAVLGFGALDFDSWGQGTQVTVSS | high polyreactivity
QVQLVESGGGLVQAGGSLRISCAASGRTFPVNAMGWYRQAPGKERELVAAITWSGDSTYYADSVKGRFTISCDNAKNTVYLQMNSLKPEDTAVYYCAAAYRYGTLYYYWGQGTQVTVSS | low polyreactivity
QVQLVESGGGLVQAGGSLRLSCAASGIIFKDYAMGWYRQAPGKERELVAAISWNGDRTYYADSVKGRFTISRDNAKNTVYLQMNRLKPEDTAVYYCAARFGSCFNYWGQGTQVTVSS | high polyreactivity
QVQLVESGGGLVQAGGSLRLSCAASGIKLYYYAMGWYRQAPGKETEFVAAIAGSGGSTRYADSVKGRFTISRDNAKKTVYLQMNSLKPEDTAVYYFAARSRYGYITFDYWGQGTQVTVSS | high polyreactivity
QVQLVESGGGLVQAGGSLRLICAASGSISVVNMGWYRQSPGKERELVASITSSGSTTYADSVKGRFTISRDNAKNTVYLQMNSVKPEDTAVYYCASDVGTDYTYQHPAGAAYDYWGQGTQVTVSS | low polyreactivity
QVQLVESGGGLVQAGGSLRLSCAASGRTFAIYVMGWYRQAPGKERELVAAITRVGSTYADSVKGRFTISRDNAKNTVYVQMNSLKPEDTAVYYCAAVSGVRSGPWRYDYWGQGTQVTVSS | high polyreactivity
QVQLVQSGGGLVQAAGSLRLICAASGRTFPANAMGWYRQAPGKERELVAGITKSGGNTYYADSVKGRFTISRDNAKNTVYLQMNSLKPEDTAVYYCATRYYPLVNYLGYDYWGQGTQVTVSS | low polyreactivity
QVQLVESGGGLVQAGGSLRLSCAASGRTFTAYAMGWYRQAPGKERELVAAITSGGSTYYADSVKGRFTISRDNAKNTVYLQMNSLKPEDTAVYYCATDLYSFYWPEYEYWGQGTQVTVSS | low polyreactivity
QVQLVESGGGLVQAGGSLRLSCAASGRIFYLNVMGWYRQAPGKERELVAAITRRDVTTYADSVKGRFTISRDNAKNTVYLEMNSLKPEDTAVYYCNAVYYNWIGFDYWGQGTQVTVSS | low polyreactivity
QVQLVESGGGLVQAGGRLRLSCAASGRTFYYYPMGWYRQAPGKERELVAAISWSGGSTYYADSVKGRCTISRDNAKNTVYLQLNSLKPDDTAVNYCNAVGSKGYRMDYWGQGTQVTVSA | high polyreactivity
QDQLVESVGGLVQAGGSLRLSCAASGGTFGPNAMGWYRQAPGKERELVAAISASGGITYYADSVKGRFTISRDNAKNTVYLQMNSLKPEDTAVYYCAAAITWIYSQAAFKIVQYDYWGQGTQVTVSS | low polyreactivity
QVQLVESGGGLVQAGGSLRLSCAASGSIFYRNVMGWYRQAPGKERELVAAISSGTSTYYADSVKGRFTISRDNAKHTVYFPMNSLKPEDPAVYDCAADGLHYYGQRWYYGVDYWVQGTQVTVSS | low polyreactivity
QVQLVESGGGLVQAGGSLRLSCAASGYTFAGYAMGWYRQAPGKERELVAAISQSGGRTYYADSVKGRFTISRDNAKNTVYLQMNSLKPEDTAVYYCNARAYYAGTYYVSRYYYWGQGTQVTVSS | high polyreactivity
QVQLVESGGGLVQEGGSLRLSCAASGRIFDVYVMGWYRQAPGKERELVDAISQSGGRTYYADSVKGRFTISRDNAKNTVYLQMNSLKPEDTAVYYCNTVTSLATNFSGFGYWGQGTQVTVSS | high polyreactivity

Sequence | polyreactivity (PSR sort gate)
QVQLVESGGGLVQAGGSLRLSCAASGSIFRYYDMGWYRQAPGKERELVAAITYSGGGTYYADSLKGRFTISRDNAKNTVYLQMNSLKPEDTAVYYCAAEPYYGWQRLDYWGQGTQVTVSS | low polyreactivity
QVQLVESGGGLVQAGGSLRLSCAASGSTFFPYAMGWYRQAPGKERELVAAIRWSGGRTYYADSVKGRFTISRDNAKNTVYLQMNSLKPEDTAVYYCAADKYLYYDYWGQGTQVTVSS | high polyreactivity
QVQLVESGGGLLQAGGSLRLSCAASGRTFAYNAMAWYRQAPGKERELVAAITDSDGNTYYADSVKGRFTISRDNAKNTVYLLMNSLKPEDTAVYYCAADYIILDHVTRGFVYEYWGQGTQVTVSS | low polyreactivity
QVQLVESGGGLVQAGGSLRLSCAASGRIFWHYAMGWYRQAPGKERELVAAISSRGGSTYYADSVKGRFTISRDNAKNTVYLQMNSLKPEDTAVYYCAADRVDGGSYYHSGYWGQGTQVTVSS | high polyreactivity
QVQLVESGGGLVQAGGSLRLSCAASGSILGINVMGWYRQAPGKERELVAAISWRGGRTYYADSVKGRFTISRDNAKNTVYLQMNSLKPEDTAVYYCAAYFYSTSYGADRGVDYWGQGTQVTVSS | high polyreactivity
QVQLVESGGGLVQAGGSLRLSCAASGFIFGNNDMGWNRQAPGKERELVAGITWSGSSTYYADSVKGRFTISRDNAKNTVYLQMNSLKPEDTAVYYCARDGNDGYEYWGQGTQVTVSS | high polyreactivity
QLQLEESVGGLVQAGVSLRLSCAASGRTFRRYAMGSDRPAPAKERELVATIRSGDNTNYADSVKGRFTISRDNAKNTFYLQMKSLKPEDTAVYYCNRSPKSGQVTYLYSVNAHYDYWGQGTQVTVSS | low polyreactivity
QVQLVESGGGLVQAGGSLRLSCAASGRTFVVNAMGWYRQAPGKERELVAAIYADSVKGRFTISRDNEKNTVYLQMNSLKPEDTAVYYCAASGGTWVNYRPEYDYWGQGTQVTVSS | low polyreactivity
QVQLVESGGGLVQAGGSLRLSCAASGRTFIINTMGWYRQAPGTERQLVAAISKNGATTNYADSVKGRFTISRDNAKNTVYLQMNSLKPVDTAVYYCNARYSGYLRLDYWGQGTQVTVSS | low polyreactivity
QVQLVESGGGLVQAGGSLRLSCAASGSTFGYYAMGWYRQAPGKERELVAAISVRGGRTYYADSVKGRFTISRDNAKNTVYVQMKSLKPEDTAVYYCATLLPGLGRYGYDYWGQGTQVTVSS | high polyreactivity
QVQLVESGGGLVQAGGSLRLSCAASGSIFTYYAMGWYRQAPGKEREFVAAISRRGGSTYYADSVKGRFTISRDNAKNTVYLQMNSLKPEDTAVYYCAATYPYRGFYGIRSQFDYWGQGTQVTVSS | high polyreactivity
QVQLVESGGGLVQAGGSLRLSCAASGSIFGSNAMGWYRQAPGKERELVAAISSRAGRTYYADSVKGRFTISRDNAKNTVYLQMNSLKPEDTAVYYCAALYWVYRNRWLYDYWGLGTQVTVSS | high polyreactivity
QVQLVESGGGLVQAGGSLRLSFAASGSTFNIYTMGWYRQAPGKEWELVARITFSGGSTYYADSVKGRFTISRDYAKNTVYLQMNSLKPEDTAVYYCAVRVYRVDHFCYDYWGQGTQVTVSS | high polyreactivity
QVQLVESGGGLVQAGGSLRLICAASGSTFWRYAMGWYRQAPGKERELVAAITGNGGRTYYADSVKGRFTISRDNAKNTVYLQMNSLKPEDTAVYYCAARYRGGVSVGYWGQGTQVTVSS | high polyreactivity
QVQLVESGGGLVQAGGSLRLSCAASGRTFIYYAMGWYRPAPGKERELVAAITWTGGRTYYADSVKGRFTISRDNAKNTVYLQMNSLKPEDTAVYYWAASDRYGGRDYWGQGTQVTVSS | high polyreactivity
